Assay results reported in article PMC10711433, “The forkhead DNA-binding domain binds specific G2-rich RNA sequences”.

T1: FOXL2 (Homo sapiens, UniProt P58012 1-376)
T1 sequence: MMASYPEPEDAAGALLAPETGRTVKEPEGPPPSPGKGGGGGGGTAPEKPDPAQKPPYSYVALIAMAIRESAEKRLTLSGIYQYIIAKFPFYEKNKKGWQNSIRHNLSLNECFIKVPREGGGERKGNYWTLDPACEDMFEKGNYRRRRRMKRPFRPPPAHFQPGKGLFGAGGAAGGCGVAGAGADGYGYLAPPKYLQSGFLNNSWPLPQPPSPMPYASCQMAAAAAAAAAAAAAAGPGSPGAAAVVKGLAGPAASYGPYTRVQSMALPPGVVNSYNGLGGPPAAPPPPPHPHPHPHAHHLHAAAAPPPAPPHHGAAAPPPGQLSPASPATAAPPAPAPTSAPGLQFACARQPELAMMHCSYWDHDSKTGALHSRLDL

T2: FOXL2 wt (recombinant) (UniProt P58012 1-376)
T2 sequence: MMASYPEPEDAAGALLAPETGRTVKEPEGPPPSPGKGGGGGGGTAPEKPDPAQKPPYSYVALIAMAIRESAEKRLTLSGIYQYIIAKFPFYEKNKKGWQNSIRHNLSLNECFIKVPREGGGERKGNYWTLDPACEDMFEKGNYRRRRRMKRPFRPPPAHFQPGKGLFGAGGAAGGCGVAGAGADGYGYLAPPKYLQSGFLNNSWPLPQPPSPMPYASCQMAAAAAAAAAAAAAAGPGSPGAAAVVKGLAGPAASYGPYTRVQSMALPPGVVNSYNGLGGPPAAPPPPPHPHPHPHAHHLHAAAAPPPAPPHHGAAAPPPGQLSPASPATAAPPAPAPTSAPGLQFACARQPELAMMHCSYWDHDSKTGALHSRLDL

T3: FOXL2 C134W (mutFOXL2) (UniProt P58012 1-376, C134W)
T3 sequence: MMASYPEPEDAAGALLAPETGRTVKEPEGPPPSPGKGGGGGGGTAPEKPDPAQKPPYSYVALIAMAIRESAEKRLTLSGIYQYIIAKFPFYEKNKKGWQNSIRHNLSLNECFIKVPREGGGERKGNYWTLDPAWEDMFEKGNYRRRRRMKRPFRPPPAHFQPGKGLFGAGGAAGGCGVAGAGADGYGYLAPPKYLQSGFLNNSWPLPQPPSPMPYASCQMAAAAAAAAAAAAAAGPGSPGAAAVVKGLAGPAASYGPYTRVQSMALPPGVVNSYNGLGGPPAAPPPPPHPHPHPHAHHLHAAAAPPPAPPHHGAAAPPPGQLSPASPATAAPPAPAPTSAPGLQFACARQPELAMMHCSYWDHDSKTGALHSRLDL

T4: FOXL2 C134W (Homo sapiens, UniProt P58012 1-376, C134W)
T4 sequence: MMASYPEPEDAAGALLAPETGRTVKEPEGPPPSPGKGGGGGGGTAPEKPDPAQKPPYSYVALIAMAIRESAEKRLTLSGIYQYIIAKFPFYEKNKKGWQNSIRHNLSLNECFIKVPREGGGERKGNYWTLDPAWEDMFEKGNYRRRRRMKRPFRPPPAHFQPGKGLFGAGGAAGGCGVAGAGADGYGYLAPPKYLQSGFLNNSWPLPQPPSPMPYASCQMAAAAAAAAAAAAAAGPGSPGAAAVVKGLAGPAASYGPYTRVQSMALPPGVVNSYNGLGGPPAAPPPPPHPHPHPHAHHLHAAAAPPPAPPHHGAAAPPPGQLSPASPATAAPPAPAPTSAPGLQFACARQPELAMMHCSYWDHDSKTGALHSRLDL

B1: mutRF001 (ssRNA)
RNA: GGGAGAGUAUCCGUUGAGGCUGACGUCAUUUGAGUGAGUGAGCGAGAGAGAGUGCGUGAGAGACGAGAGCGUGAGAUCGGAAGAGCGUCGUGUAGG
B2: RF001 (ssRNA)
RNA: GGGAGAGUAUCCGUUGAGGCUGACGUCAUUUGGUGGAUGGCGGAAGGAGGCGGAGGACGGGAAAUUCUGGAAAAGAUCGGAAGAGCGUCGUGUAGG
B3: RF001 DNA (ssDNA)
DNA: GGGAGAGTATCCGTTGAGGCTGACGTCATTTGGTGGATGGCGGAAGGAGGCGGAGGACGGGAAATTCTGGAAAAGATCGGAAGAGCGTCGTGTAGG
B4: RF000 DNA (ssDNA)
DNA: GGGAGAGTATCCGTTGAGGCTGAGAGGTATTAAGAGGCGGAGGCGGAAGGATGGCGGAGGACCGACAGAGAAGAGATCGGAAGAGCGTCGTGTAGG
B5: RF002 DNA (ssDNA)
DNA: GGGAGAGTATCCGTTGAGGCTGATCGGACTTTGGTGGTTGGAGGACGGATGGACGGAGGTTTATTAGGCTCGCAGATCGGAAGAGCGTCGTGTAGG
B6: RF004 DNA (ssDNA)
DNA: GGGAGAGTATCCGTTGAGGCTGAATCTGCGACTGGCTGGAGGTGGACGGATGGCTGGAGGCGAAATTGGCTTAAGATCGGAAGAGCGTCGTGTAGG
B7: scr50 (ssRNA)
RNA: GGGAGAGUAUCCGUUGAGGCUGAGGGACACUCGCUGUUUUCGAAAUUACCCUUUAUGCGCGGGUAUUGAACCAAGAUCGGAAGAGCGUCGUGUAGG
B8: RF004 (ssRNA)
RNA: GGGAGAGUAUCCGUUGAGGCUGAAUCUGCGACUGGCUGGAGGUGGACGGAUGGCUGGAGGCGAAAUUGGCUUAAGAUCGGAAGAGCGUCGUGUAGG
B9: RF000 (ssRNA)
RNA: GGGAGAGUAUCCGUUGAGGCUGAGAGGUAUUAAGAGGCGGAGGCGGAAGGAUGGCGGAGGACCGACAGAGAAGAGAUCGGAAGAGCGUCGUGUAGG
B10: RF002 (ssRNA)
RNA: GGGAGAGUAUCCGUUGAGGCUGAUCGGACUUUGGUGGUUGGAGGACGGAUGGACGGAGGUUUAUUAGGCUCGCAGAUCGGAAGAGCGUCGUGUAGG

Assays:
FOXL2 = biological target: T1, FOXL2; assay: pulldown; 37 C; 10 mM HEPES, 140 mM KCl, 25 mM NaCl, 1 mM MgCl2, 0.1 mM CaCl2; equimolar mix, tRNA; conditions: tags: His-SUMO, cleaved
FOXL2 wt (recombinant) [1] = biological target: T2, FOXL2 wt (recombinant); assay: pull-down competition + HTS; mixed with mutRF001; 10 mM HEPES (pH 7.5), 140 mM KCl, 25 mM NaCl, 1 mM MgCl2, 0.1 mM CaCl2, 0.001% IGEPAL, 100 nM yeast tRNA, 50 nM total aptamers, 37 C, 30 min; Li+ variant: 140 mM LiCl replaces KCl/NaCl; conditions: protein: recombinant; tags: His-SUMO tag cleaved; putative two-tier intramolecular G4
FOXL2 C134W (mutFOXL2) [2] = biological target: T3, FOXL2 C134W (mutFOXL2); assay: pull-down competition + HTS; K+/Na+ buffer, tRNA competitor; 10 mM HEPES (pH 7.5), 140 mM KCl, 25 mM NaCl, 1 mM MgCl2, 0.1 mM CaCl2, 0.001% IGEPAL, 100 nM yeast tRNA, 50 nM total aptamers, 37 C, 30 min; Li+ variant: 140 mM LiCl replaces KCl/NaCl; conditions: protein: recombinant; tags: His-SUMO tag cleaved; putative two-tier intramolecular G4
FOXL2 wt (recombinant) [3] = biological target: T2, FOXL2 wt (recombinant); assay: as above; conditions: protein: recombinant; tags: His-SUMO tag cleaved; putative two-tier intramolecular G4
FOXL2 C134W = biological target: T4, FOXL2 C134W; assay: pulldown; 37 C; 10 mM HEPES, 140 mM KCl, 25 mM NaCl, 1 mM MgCl2, 0.1 mM CaCl2; equimolar mix, tRNA; conditions: tags: His-SUMO, cleaved
FOXL2 wt (recombinant) [4] = biological target: T2, FOXL2 wt (recombinant); assay: pull-down competition + HTS; K+/Na+ buffer; basically absent; 10 mM HEPES (pH 7.5), 140 mM KCl, 25 mM NaCl, 1 mM MgCl2, 0.1 mM CaCl2, 0.001% IGEPAL, 100 nM yeast tRNA, 50 nM total aptamers, 37 C, 30 min; Li+ variant: 140 mM LiCl replaces KCl/NaCl; conditions: protein: recombinant; tags: His-SUMO tag cleaved; unable to fold into G4
FOXL2 C134W (mutFOXL2) [5] = biological target: T3, FOXL2 C134W (mutFOXL2); assay: as above; conditions: protein: recombinant; tags: His-SUMO tag cleaved; unable to fold into G4
FOXL2 wt (recombinant) [6] = biological target: T2, FOXL2 wt (recombinant); assay: pull-down competition + HTS; mixed with RF000/RF002 DNA and scr50 RNA; 10 mM HEPES (pH 7.5), 140 mM KCl, 25 mM NaCl, 1 mM MgCl2, 0.1 mM CaCl2, 0.001% IGEPAL, 100 nM yeast tRNA, 50 nM total aptamers, 37 C, 30 min; Li+ variant: 140 mM LiCl replaces KCl/NaCl; conditions: protein: recombinant; tags: His-SUMO tag cleaved; putative two-tier intramolecular G4
FOXL2 wt (recombinant) [7] = biological target: T2, FOXL2 wt (recombinant); assay: pull-down competition + HTS; 140 mM LiCl, no K+/Na+; 10 mM HEPES (pH 7.5), 140 mM KCl, 25 mM NaCl, 1 mM MgCl2, 0.1 mM CaCl2, 0.001% IGEPAL, 100 nM yeast tRNA, 50 nM total aptamers, 37 C, 30 min; Li+ variant: 140 mM LiCl replaces KCl/NaCl; conditions: protein: recombinant; tags: His-SUMO tag cleaved; putative two-tier intramolecular G4

| Binder | binding result (FOXL2) | binding result (FOXL2 C134W) | also measured |
| --- | --- | --- | --- |
| B1 | no binding |  |  |
| CGUCAUUUGGUGGAUGGCGGAAGGAGGCGGAGGACGGGAAAUUCUGGAAA (structured_RNA) [RF001 RNA] |  |  | binding signal (FOXL2 wt (recombinant) [1]): > 10 fold enrichment RF001/mutRF001 vs no-protein control; binding result (FOXL2 C134W (mutFOXL2) [2]): binds |
| GAGGUAUUAAGAGGCGGAGGCGGAAGGAUGGCGGAGGACCGACAGAGAAG (structured_RNA) [RF000 RNA] |  |  | binding result (FOXL2 wt (recombinant) [3]): binds; binding result (FOXL2 C134W (mutFOXL2) [2]): binds |
| B2 | binds | binds |  |
| B3 | no binding |  |  |
| B4 | no binding |  |  |
| B5 | no binding |  |  |
| B6 | no binding |  |  |
| GGGACACUCGCUGUUUUCGAAAUUACCCUUUAUGCGCGGGUAUUGAACCA (ssRNA) [scr50 RNA] |  |  | binding result (FOXL2 wt (recombinant) [4]): no binding; binding result (FOXL2 C134W (mutFOXL2) [5]): no binding |
| B7 | no binding | no binding |  |
| B8 | binds | binds |  |
| B9 | binds | binds |  |
| AUCUGCGACUGGCUGGAGGUGGACGGAUGGCUGGAGGCGAAAUUGGCUUA (structured_RNA) [RF004 RNA] |  |  | binding result (FOXL2 wt (recombinant) [6]): binds; binding result (FOXL2 C134W (mutFOXL2) [2]): binds |
| UCGGACUUUGGUGGUUGGAGGACGGAUGGACGGAGGUUUAUUAGGCUCGC (structured_RNA) [RF002 RNA] |  |  | binding result (FOXL2 wt (recombinant) [7]): binds; binding result (FOXL2 C134W (mutFOXL2) [2]): binds |
| B10 | binds | binds |  |
